Measurements: article PMC11312540 (bioRxiv, 2024)

Molecular target: SH3 domain of Src (residues 83–141) with C-terminal FLAG-tag (chicken, UniProt P00523 83-141)
Experiment: bimane fluorescence

B1: βarr1-MC-393 V70C labeled with monobromobimane (domain or fragment, rat, UniProt P29066 1-393, looked up)
chain: MGDKGTRVFKKASPNGKLTVYLGKRDFVDHIDLVDPVDGVVLVDPEYLKERRVYVTLTAAFRYGREDLDCLGLTFRKDLFVANVQSFPPAPEDKKPLTRLQERLIKKLGEHAYPFTFEIPPNLPSSVTLQPGPEDTGKAIGVDYEVKAFVAENLEEKIHKRNSVRLVIRKVQYAPERPGPQPTAETTRQFLMSDKPLHLEASLDKEIYYHGEPISVNVHVTNNTNKTVKKIKISVRQYADIVLFNTAQYKVPVAMEEADDTVAPSSTFSKVYTLTPFLANNREKRGLALDGKLKHEDTNLASSTLLREGANREILGIIVSYKVKVKLVVSRGGLLGDLASSDVAVELPFTLMHPKPKEEPPHREVPESETPVDTNLIELDTNDDDIVFEDFAR
modifications: monobromobimane (mBr) on C70
Q: Does B1 bind?
A: binds
